According to patent US6074842:

Target: rat perilipin A (62-kDa phosphoprotein of unstimulated rat adipocytes; 65/67-kDa forms after stimulation) (rat)
Settings: scale: ratio to 1

- 32P incorporation and shift in SDS-PAGE from 62-kDa to 65/67-kDa in isoproterenol-stimulated rat adipocytes: 5
Substance: cAMP-dependent protein kinase (enzyme)
